From article doi:10.1101/679431 (bioRxiv, 2019)

Experiments:
native gel or EMSA = target: the molecule itself; assay: native gel or EMSA
[1] = target: the molecule itself; assay: affinity purification with mass spectrometry + native gel or EMSA

Protein	stoichiometry N (native gel or EMSA)	stoichiometry N [1]
endogenous TRAP1 (natural protein) STQTAEDKEEPLHSIISSTESVQGSTSKHEFQAETKKLLDIVARSLYSEKEVFIRELISNASDALEKLRHKLVSDGQALPEMEIHLQTNAEKGTITIQDTGIGMTQEELVSNLGTIARSGSKAFLDALQNQAEASSKIIGQFGVGFYSAFMVADRVEVYSRSAAPGSLGYQWLSDGSGVFEIAEASGVRTGTKIIIHLKSDCKEFSSEARVRDVVTKYSNFVSFPLYLNGRRMNTLQAIWMMDPKDVREWQHEEFYRYVAQAHDKPRYTLHYKTDAPLNIRSIFYVPDMKPSMFDVSRELGSSVALYSRKVLIQTKATDILPKWLRFIRGVVDSEDIPLNLSRELLQESALIRKLRDVLQQRLIKFFIDQSKKDAEKYAKFFEDYGLFMREGIVTATEQEVKEDIAKLLRYESSALPSGQLTSLSEYASRMRAGTRNIYYLCAPNRHLAEHSPYYEAMKKKDTEVLFCFEQFDELTLLHLREFDKKKLISVETDIVVDHYKEEKFEDRSPAAECLSEKETEELMAWMRNVLGSRVTNVKVTLRLDTHPAMVTVLEMGAARHFLRMQQLAKTQEERAQLLQPTLEINPRHALIKKLNQLRASEPGLAQLLVDQIYENAMIAAGLVDDPRAMVGRLNELLVKALERH	4	
TRAP1-GST fusion protein (natural protein) STQTAEDKEEPLHSIISSTESVQGSTSKHEFQAETKKLLDIVARSLYSEKEVFIRELISNASDALEKLRHKLVSDGQALPEMEIHLQTNAEKGTITIQDTGIGMTQEELVSNLGTIARSGSKAFLDALQNQAEASSKIIGQFGVGFYSAFMVADRVEVYSRSAAPGSLGYQWLSDGSGVFEIAEASGVRTGTKIIIHLKSDCKEFSSEARVRDVVTKYSNFVSFPLYLNGRRMNTLQAIWMMDPKDVREWQHEEFYRYVAQAHDKPRYTLHYKTDAPLNIRSIFYVPDMKPSMFDVSRELGSSVALYSRKVLIQTKATDILPKWLRFIRGVVDSEDIPLNLSRELLQESALIRKLRDVLQQRLIKFFIDQSKKDAEKYAKFFEDYGLFMREGIVTATEQEVKEDIAKLLRYESSALPSGQLTSLSEYASRMRAGTRNIYYLCAPNRHLAEHSPYYEAMKKKDTEVLFCFEQFDELTLLHLREFDKKKLISVETDIVVDHYKEEKFEDRSPAAECLSEKETEELMAWMRNVLGSRVTNVKVTLRLDTHPAMVTVLEMGAARHFLRMQQLAKTQEERAQLLQPTLEINPRHALIKKLNQLRASEPGLAQLLVDQIYENAMIAAGLVDDPRAMVGRLNELLVKALERH		4
